To fix the notation:
B1: glmS ribozyme (parent)
chain: AUAAAAGCGCCAGAACUACAGAAAUGUAGUUGACGAGGAGGAGGUUUAUCGAAUUUUCGGCGGAUGCCUCCAAA

± gives the standard error. This sample holds only a part of the variants without activity. Bounds are passed on as bounds.

The first data set covers variants of B1. In words: self-cleavage kobs at 2500 uM GlcN6P; higher = faster cleavage; RNA array. Conditions: with glucosamine-6-phosphate. The essentials:
(§1)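 Sequenced MiSeq chips were the platform: E. coli RNA polymerase transcribed barcoded ribozyme variants on them in situ, and a hybridised Cy3 probe tracked these at 37 °C. After glucosamine-6-phosphate (40 μM to 10 mM) in HEPES/KCl/Mg(OAc)2 buffer was flowed in, tiles were imaged over ~14 h. Signals normalised to baseline and to non-cleaving reference variants were reduced to per-tile medians and fit to one- or two-exponential decays to obtain kobs. kcat and KM were derived through weighted Michaelis–Menten fits across concentrations.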
Consider AUAAAAGCGGCAGAACUACAGAAAUGUAGUUGACGAGGAGGCGGUUUAUCGAAUUUUCGGCGGAGGCCUCCAAA [C10G A42C U65G], for which the “self-cleavage kobs at 2500 uM GlcN6P” value is less than 1e-05 s⁻¹. The same measure, in the same setting: the result for AUAAAAGCGCCAGAAAUACAGAAAUGUAGUUGCCGAGGAAGAGGUUUAUCGAAUUCUCGGCGGAUGUCUCCAAA [C16A A33C G40A U56C C67U] reads less than 1e-05 s⁻¹. Same read-out and setting: the result for AUAAAAGCGCCAGAACUACAGAAAUGUAGUUGACGAGGGGGAGGUUUAUCGAAUGUUCGGCGGGUGCCUCCAAA [A39G U55G A64G] reads 0.00731 ± 0.0025 s⁻¹; that for AUAAAAGCGCCAGAACUACAGAAAUGUAGUUGCCGAGGAGCAGGUUUAUCGAAUUUUCGGCGGAUGGCUCCAAA [A33C G41C C67G], less than 1e-05 s⁻¹. Still for that read-out and setting: as for AUAAACGCGCCAGCUCUACAGAAAUGUAGUUGACGAGGAGGGGGUUUAUCGAAUUUUCGGCGGAUGCCUCCAAA [A6C A14C A15U A42G], the figure is less than 1e-05 s⁻¹. On to AUAAAAGCGCCAGAACUACAGAAAUGUAGUUGACGAGGAGGAUGUUUAUCGAAAUUUUCGGCGGAUCCUCCAAA [G43U U54A C58U G59C C61G G62C A64G U65A G66U], for which the “self-cleavage kobs at 2500 uM GlcN6P” value is less than 1e-05 s⁻¹.

For AUAAAAGCGGCAGCACUACAGAAAUGUAGUUGACGAGGAGGAGGUUUCUUGAAUUUUCGGCGGAUGCCUCCAAA [C10G A14C A48C C50U], the “self-cleavage kobs at 2500 uM GlcN6P” value is less than 1e-05 s⁻¹. Consider AUAAAAGCGCCAGUACUACAGAAAUGUAUUUGACGAGGAGGAGGUUUAUCGAAUUUUCGGCGGAUGGCUCCAAA [A14U G29U C67G], for which the “self-cleavage kobs at 2500 uM GlcN6P” value came out at 6.46e-05 ± 2.8e-05 s⁻¹.

On to AUAAAAGCGCCAGAACUACAGAAAUGUAGUUUACGAGGAGGAGGUUUAUCGAAUUUUCGGCGGAUACCUACAAA [G32U G66A C70A], for which the “self-cleavage kobs at 2500 uM GlcN6P” value was found to be 0.00086 ± 0.00036 s⁻¹.

On to AUAAAAGCGCCAGAACUACAGAAAUGUAGUUGACGAGGAGGAGGUUGAUCGAAUUUUCGGCGGAUGCAUCGAAA [U47G C68A C71G], for which the “self-cleavage kobs at 2500 uM GlcN6P” value was found to be 0.00013 ± 3.6e-05 s⁻¹.

AUAAAAGCACCCGAACUACAGAAAUGUAGUUGACGAGGAGGAGGUUUAUCGAAUUUUCCGCGGAUGCCUCCAAA [G9A A12C G59C]: the “self-cleavage kobs at 2500 uM GlcN6P” value was less than 1e-05 s⁻¹. The same measure, in the same setting: the result for AUAAAAGCGCCAGAACUACAGAAAUGUAGUUGCCGACGAGGAGGUUUAUCGAAUCUUCGGCGGAUGCCUCCAAA [A33C G37C U55C] reads less than 1e-05 s⁻¹; that for AUAAAAGCGCCAGAACUACAGAAAUGUAGCUGACGAGGAGUCGGUUUAUCGAAUUUUCGGCGGAUGCCUCCAAA [U30C G41U A42C], less than 1e-05 s⁻¹.

With AUAAAAGCGUCAGAACUACAGAAAUGUAGUUGACGCGGAUGAGGUUUAUCGAAUUUUCUGCGGAUGGCUCCAAA [C10U A36C G40U G59U C67G], the “self-cleavage kobs at 2500 uM GlcN6P” value is less than 1e-05 s⁻¹. As to AUAAAAGCGCCAGGACUACAGAAAUGUAGUUGACGAGGAGGAGGAUUAUCGAAUUUUCGGCGGAUGCCACCAAA [A14G U45A U69A], the “self-cleavage kobs at 2500 uM GlcN6P” value is 0.000801 ± 0.00024 s⁻¹. Regarding AUAAAACCGCCAGAACUACAGAAAUGUAAUUGACGAGGAGGAGGUUUAUCGAAUUUUCGGCUGAUGCCUCCAAA [G7C G29A G62U], the “self-cleavage kobs at 2500 uM GlcN6P” value is less than 1e-05 s⁻¹. Consider AUAAAAGCGGCAGUACUACAGAAAUGUACUUGACGAGGAGGAGGUUUAACGGAUUUUCGGCGGAUGGCUCCAAA [C10G A14U G29C U49A A52G C67G], for which the “self-cleavage kobs at 2500 uM GlcN6P” value turned out to be 7.89e-05 ± 2.3e-05 s⁻¹. On the same count and under the same terms, the result for AUAAAAGCGCAAGAACUACAUAAAUGUAGUUGACGAGGAGGAGGUUUAUCGAAUUUUCGGCGGAUGCCUCCAAA [C11A G21U] reads 9.85e-05 ± 2.9e-05 s⁻¹. As to AUAAAAGGGCCAGAACUACAGAAAUGUAGUUGACGAGGUGGAGGUUUAUCGAAUUUUCGGCGGAUGCCUCAAAA [C8G A39U C71A], the “self-cleavage kobs at 2500 uM GlcN6P” value was less than 1e-05 s⁻¹.

As to AUAAAAGAGCCAGAGCUACAGAAAUGUAGUUUACGAGGAGGAGUUUUAUCGAAUUUUCGGCGGAUGACUCCAAA [C8A A15G G32U G44U C67A], the “self-cleavage kobs at 2500 uM GlcN6P” value was less than 1e-05 s⁻¹. Still for that read-out and setting: the result for AUAAAAGCGCCAGAACUACAGAAAUGUAGUUGACGAGGCGGAGGUUAAUCGAAUUUUCGGCGGAUCCCUCCAAA [A39C U47A G66C] reads 0.000411 ± 8.5e-05 s⁻¹.

For the variant AUAAAAACGCCAGAACUACAGAAAUGUAGUUGACGAGGAGGAGGUUUAUCUAAGUUUCGGCGAAUGCCUCCAAA [G7A G51U U54G G63A], the “self-cleavage kobs at 2500 uM GlcN6P” value is less than 1e-05 s⁻¹. The same measure, in the same setting: as for AUAAAAGCGCCAGAACUACAGAAAUGUAGUUGGCGAGGAGGAGGUUUAUCGAUUUUUCGUCGGAUGCCUCGAAA [A33G A53U G60U C71G], the figure is less than 1e-05 s⁻¹; as for AUAAAAGCGCCAGUACUACAGAAAUGUAGUUGACGAGGAGGAGGUUUCUCGAAUUUUCGGCGGAUGCCACCAAA [A14U A48C U69A], less than 1e-05 s⁻¹.

AUAAAAGCGCCAGAAAUACAGAAAUGUAGUUGACGCGGAGGCGGUUUAUCGAAUCAGUGGCGGAUGCCUCGAAA [C16A A36C A42C U55C U56A U57G C58U C71G]: the “self-cleavage kobs at 2500 uM GlcN6P” value is less than 1e-05 s⁻¹. The same measure, in the same setting: as for AUAAAAUCGCCAGAAUUACAGAAAUGUAGUUGUCGAGGAGGAGGUUUAUCGAAUUUUCGGCGGAUGCCUCCAAA [G7U C16U A33U], the figure is less than 1e-05 s⁻¹. Same read-out and setting: the result for AUAAAGGCGCCAGAACUACAGAAAUGUAGUUUACGAGGAGGAGGGUUAUCGAAUUUUCGGCGGAUGCCUCCAAA [A6G G32U U45G] reads less than 1e-05 s⁻¹. The same measure, in the same setting: the result for AUAAAAGCGCCAGAACUACAGAAAUGUAGUUGACGCGGAGGAGGUUUAGCGAAUUUUCGGCGCAUGCCUCCAAA [A36C U49G G63C] reads less than 1e-05 s⁻¹. Take AUAAAAGCGCCAGAACUACAGAAAUGUAGUUGAAGAGGAGGAGGUUUAUCGAAUUUUCGGCGGAUGCCACCAAA [C34A U69A]: the “self-cleavage kobs at 2500 uM GlcN6P” value is less than 1e-05 s⁻¹. On the same count and under the same terms, the result for AUAAAAGCGCCACAACUACAGAAAUGUAGUUGACGAGGAGAAGGAUUAUCGAAUUUUCGGCGGAUGCCUUCAAA [G13C G41A U45A C70U] reads 8.8e-05 ± 2e-05 s⁻¹; that for AUAAAAGCGCCAGAACUACAGAAAUGUAGAUCACGAGGGGGAGGUUUAUCGAAUUUUCGGCGGAUGCCUCCAAA [U30A G32C A39G], 9.38e-05 ± 3.4e-05 s⁻¹.

Regarding AUAAAAGCGCCAGAACUACAGAAAUGUAGUUGACGAGAAGGAGCUUUAUCGAAUUUUCGGCGGAUGCCUCCAAA [G38A G44C], the “self-cleavage kobs at 2500 uM GlcN6P” value is less than 1e-05 s⁻¹. Take AUAAAAGCGCCAGAACUACAGAAAUGUAAUUGACGAGGAGUAGGUUUAUCGAAUUUUCGGCGGAUGCUUCCAAA [G29A G41U C68U]: the “self-cleavage kobs at 2500 uM GlcN6P” value was less than 1e-05 s⁻¹.

Variants of B1 are the subject of the next data set. In words: self-cleavage kobs at 10000 uM GlcN6P; higher = faster cleavage; RNA array. To be noted: with glucosamine-6-phosphate. The essentials:
as §1
AUAAAAGCGUCAGAACUACAGAAAUGUAGUUGACGCGGAUGAGGUUUAUCGAAUUUUCUGCGGAUGGCUCCAAA [C10U A36C G40U G59U C67G]: the “self-cleavage kobs at 10000 uM GlcN6P” value was less than 1e-05 s⁻¹.

As for AUAAAAGCGCAAGAACUACAUAAAUGUAGUUGACGAGGAGGAGGUUUAUCGAAUUUUCGGCGGAUGCCUCCAAA [C11A G21U], the “self-cleavage kobs at 10000 uM GlcN6P” value is 0.000164 ± 3.4e-05 s⁻¹.

Turning to AUAAAAGAGCCAGAGCUACAGAAAUGUAGUUUACGAGGAGGAGUUUUAUCGAAUUUUCGGCGGAUGACUCCAAA [C8A A15G G32U G44U C67A], the “self-cleavage kobs at 10000 uM GlcN6P” value is less than 1e-05 s⁻¹. On the same count and under the same terms, the result for AUAAAAGCGCCAGAACUACAGAAAUGUAGUUGACGAGAAGGAGCUUUAUCGAAUUUUCGGCGGAUGCCUCCAAA [G38A G44C] reads less than 1e-05 s⁻¹.

The values are drawn from the supplement of paper PMC7125110.
